Reference: patent publication US20180258163A1 (Chugai, published 2018)
Positions count from the first letter of the chain named. Numbers in names are those of the source.

B1: Ab1H-P1470m/Ab1L (antibody, human IgG1, kappa, name in EU numbering)
heavy: not shown
light: DIQMTQSPSSVSASVGDRVTITCQASESIYSGLAWYQQKPGQPPKLLIYDHSTLASGVPSRFSGSGSGTEYALTISSLQPEDFATYYCQHADYAHHSDNVFGGGTKVEIKRTVAAPSVFIFPPSDEQLKSGTASVVCLLNNFYPREAKVQWKVDNALQSGNSQESVTEQDSKDSTYSLSSTLTLSKADYEKHKVYACEVTHQGLSSPVTKSFNRGEC
notes: copies: 2 + 2
B2: Ab1H-P1480m/Ab1L (antibody, human IgG1, kappa, name in EU numbering)
heavy: not shown
light: B1 light
B3: Ab1H-P1394m/Ab1L (antibody, human IgG1, kappa)
heavy: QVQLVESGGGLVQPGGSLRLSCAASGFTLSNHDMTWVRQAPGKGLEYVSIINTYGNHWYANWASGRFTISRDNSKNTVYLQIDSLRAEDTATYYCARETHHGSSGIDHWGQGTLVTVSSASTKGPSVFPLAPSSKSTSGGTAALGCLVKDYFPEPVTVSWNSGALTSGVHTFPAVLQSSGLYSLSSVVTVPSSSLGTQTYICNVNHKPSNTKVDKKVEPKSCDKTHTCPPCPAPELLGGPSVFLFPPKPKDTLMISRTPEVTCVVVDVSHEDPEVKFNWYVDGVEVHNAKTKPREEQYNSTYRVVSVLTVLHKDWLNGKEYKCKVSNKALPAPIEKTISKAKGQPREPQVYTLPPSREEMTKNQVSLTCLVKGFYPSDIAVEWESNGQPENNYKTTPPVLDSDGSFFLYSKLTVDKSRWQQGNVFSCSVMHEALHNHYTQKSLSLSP
light: B1 light
notes: heavy chain = Ab1H with Q311K (EU); copies: 2 + 2
B4: Ab1H-P1468m/Ab1L (antibody, human IgG1, kappa, name in EU numbering)
heavy: not shown
light: B1 light
notes: copies: 2 + 2
B5: Ab1H-P1398m/Ab1L (antibody, human IgG1, kappa, name in EU numbering)
heavy: not shown
light: B1 light
notes: copies: 2 + 2
B6: Ab1H-P1471m/Ab1L (antibody, human IgG1, kappa, name in EU numbering)
heavy: not shown
light: B1 light
notes: copies: 2 + 2
B7: Ab1H-P1466m/Ab1L (antibody, human IgG1, kappa, name in EU numbering)
heavy: not shown
light: B1 light
notes: copies: 2 + 2
B8: Ab1H-P1469m/Ab1L (antibody, human IgG1, kappa, name in EU numbering)
heavy: not shown
light: B1 light
notes: copies: 2 + 2
B9: Ab1H005m/Ab1L (antibody, human IgG1, kappa, name in Kabat numbering)
heavy: not shown
light: B1 light
notes: copies: 2 + 2
B10: Ab1H030/Ab1L (antibody, human IgG1, kappa, name in Kabat numbering)
heavy: not shown
light: B1 light
notes: copies: 2 + 2
B11: Ab1H013/Ab1L (antibody, human IgG1, kappa, name in Kabat numbering)
heavy: not shown
light: B1 light
notes: copies: 2 + 2
B12: Ab1H034/Ab1L (antibody, human IgG1, kappa, name in Kabat numbering)
heavy: not shown
light: B1 light
notes: copies: 2 + 2
B13: Ab1H018/Ab1L (antibody, human IgG1, kappa, name in Kabat numbering)
heavy: not shown
light: B1 light
notes: copies: 2 + 2
B14: Ab1H039/Ab1L (antibody, human IgG1, kappa, name in Kabat numbering)
heavy: not shown
light: B1 light
notes: copies: 2 + 2
B15: Ab1H014/Ab1L (antibody, human IgG1, kappa, name in Kabat numbering)
heavy: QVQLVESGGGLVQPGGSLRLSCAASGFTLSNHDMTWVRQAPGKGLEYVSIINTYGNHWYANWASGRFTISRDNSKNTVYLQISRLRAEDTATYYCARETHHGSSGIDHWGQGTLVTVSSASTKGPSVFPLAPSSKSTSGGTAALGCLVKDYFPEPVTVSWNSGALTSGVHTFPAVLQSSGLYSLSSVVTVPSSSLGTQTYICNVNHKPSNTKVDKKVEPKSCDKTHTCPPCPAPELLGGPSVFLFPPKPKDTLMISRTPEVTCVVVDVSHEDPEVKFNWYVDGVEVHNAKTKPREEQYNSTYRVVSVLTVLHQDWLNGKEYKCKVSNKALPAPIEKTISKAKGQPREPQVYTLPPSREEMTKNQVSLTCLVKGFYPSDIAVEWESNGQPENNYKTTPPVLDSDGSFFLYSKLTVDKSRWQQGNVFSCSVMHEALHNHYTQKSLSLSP
light: B1 light
notes: copies: 2 + 2
B16: Ab1H029/Ab1L (antibody, human IgG1, kappa, name in Kabat numbering)
heavy: not shown
light: B1 light
notes: copies: 2 + 2
B17: Ab1H035/Ab1L (antibody, human IgG1, kappa, name in Kabat numbering)
heavy: not shown
light: B1 light
notes: copies: 2 + 2
B18: Ab1H027/Ab1L (antibody, human IgG1, kappa, name in Kabat numbering)
heavy: not shown
light: B1 light
notes: copies: 2 + 2
B19: Ab1H010/Ab1L (antibody, human IgG1, kappa, name in Kabat numbering)
heavy: not shown
light: B1 light
notes: copies: 2 + 2
B20: Ab1H031m/Ab1L (antibody, human IgG1, kappa, name in Kabat numbering)
heavy: not shown
light: B1 light
notes: copies: 2 + 2
B21: Ab1H041m/Ab1L (antibody, human IgG1, kappa, name in Kabat numbering)
heavy: not shown
light: B1 light
notes: copies: 2 + 2
B22: Ab1H016/Ab1L (antibody, human IgG1, kappa, name in Kabat numbering)
heavy: not shown
light: B1 light
notes: copies: 2 + 2
B23: Ab1H028/Ab1L (antibody, human IgG1, kappa, name in Kabat numbering)
heavy: not shown
light: B1 light
notes: copies: 2 + 2
B24: Ab1H045/Ab1L (antibody, human IgG1, kappa, name in Kabat numbering)
heavy: not shown
light: B1 light
notes: copies: 2 + 2
B25: Ab1H012/Ab1L (antibody, human IgG1, kappa, name in Kabat numbering)
heavy: not shown
light: B1 light
notes: copies: 2 + 2
B26: Ab1H/Ab1L038 (antibody, human IgG1, kappa)
heavy: not shown
light: B1 light with Q24R, E27R, S52R, S56R, T74K, S77R
notes: copies: 2 + 2
B27: Ab1H/Ab1L040 (antibody, human IgG1, kappa)
heavy: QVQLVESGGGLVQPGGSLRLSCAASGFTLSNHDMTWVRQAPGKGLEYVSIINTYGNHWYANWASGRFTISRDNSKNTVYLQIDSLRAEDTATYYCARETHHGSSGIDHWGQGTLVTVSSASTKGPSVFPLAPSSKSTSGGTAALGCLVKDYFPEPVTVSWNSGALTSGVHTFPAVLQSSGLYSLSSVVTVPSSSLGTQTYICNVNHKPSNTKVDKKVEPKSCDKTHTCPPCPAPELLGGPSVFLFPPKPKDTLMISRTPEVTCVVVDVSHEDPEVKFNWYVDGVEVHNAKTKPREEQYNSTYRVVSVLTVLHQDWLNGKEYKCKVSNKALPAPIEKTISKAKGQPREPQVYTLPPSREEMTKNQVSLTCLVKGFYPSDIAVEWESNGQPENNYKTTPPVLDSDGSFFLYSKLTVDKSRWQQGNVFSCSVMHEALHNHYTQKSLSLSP
light: B1 light with Q24R, E27R, G41R, Q42K, S76R, Q79K
notes: copies: 2 + 2
B28: Ab1H/Ab1L029 (antibody, human IgG1, kappa)
heavy: not shown
light: B1 light with A25R, S26R, S52K, S56K
notes: copies: 2 + 2
B29: Ab1H/Ab1L019 (antibody, human IgG1, kappa)
heavy: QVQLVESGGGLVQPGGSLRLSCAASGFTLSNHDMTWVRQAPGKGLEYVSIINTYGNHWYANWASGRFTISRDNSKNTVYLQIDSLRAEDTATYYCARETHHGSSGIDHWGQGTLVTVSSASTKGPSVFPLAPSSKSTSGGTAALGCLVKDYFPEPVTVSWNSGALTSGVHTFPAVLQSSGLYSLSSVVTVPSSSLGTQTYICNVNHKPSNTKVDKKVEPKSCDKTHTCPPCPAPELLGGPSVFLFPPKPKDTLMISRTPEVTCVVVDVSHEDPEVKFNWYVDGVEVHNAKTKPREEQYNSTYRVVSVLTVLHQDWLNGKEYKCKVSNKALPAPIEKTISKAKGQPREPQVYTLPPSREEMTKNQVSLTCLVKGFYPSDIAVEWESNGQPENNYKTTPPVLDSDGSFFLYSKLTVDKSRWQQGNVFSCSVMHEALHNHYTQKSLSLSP
light: B1 light with Q24R, E27R, S52R, S56R
notes: copies: 2 + 2
B30: Ab1H/Ab1L018 (antibody, human IgG1, kappa)
heavy: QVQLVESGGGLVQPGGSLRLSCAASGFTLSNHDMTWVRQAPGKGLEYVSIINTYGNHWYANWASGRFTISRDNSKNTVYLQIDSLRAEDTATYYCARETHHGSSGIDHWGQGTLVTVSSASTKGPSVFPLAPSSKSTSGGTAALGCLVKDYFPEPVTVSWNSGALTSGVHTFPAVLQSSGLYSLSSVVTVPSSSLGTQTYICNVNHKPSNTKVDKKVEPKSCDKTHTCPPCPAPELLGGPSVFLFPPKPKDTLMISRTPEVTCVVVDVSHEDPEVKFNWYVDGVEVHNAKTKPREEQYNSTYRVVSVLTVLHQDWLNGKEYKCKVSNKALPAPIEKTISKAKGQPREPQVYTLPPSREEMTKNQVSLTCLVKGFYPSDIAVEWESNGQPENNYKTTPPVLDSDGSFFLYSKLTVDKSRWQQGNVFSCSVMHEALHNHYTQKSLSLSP
light: B1 light with Q24R, E27R, L46R, Y49K
notes: copies: 2 + 2
B31: Ab1H/Ab1L025 (antibody, human IgG1, kappa)
heavy: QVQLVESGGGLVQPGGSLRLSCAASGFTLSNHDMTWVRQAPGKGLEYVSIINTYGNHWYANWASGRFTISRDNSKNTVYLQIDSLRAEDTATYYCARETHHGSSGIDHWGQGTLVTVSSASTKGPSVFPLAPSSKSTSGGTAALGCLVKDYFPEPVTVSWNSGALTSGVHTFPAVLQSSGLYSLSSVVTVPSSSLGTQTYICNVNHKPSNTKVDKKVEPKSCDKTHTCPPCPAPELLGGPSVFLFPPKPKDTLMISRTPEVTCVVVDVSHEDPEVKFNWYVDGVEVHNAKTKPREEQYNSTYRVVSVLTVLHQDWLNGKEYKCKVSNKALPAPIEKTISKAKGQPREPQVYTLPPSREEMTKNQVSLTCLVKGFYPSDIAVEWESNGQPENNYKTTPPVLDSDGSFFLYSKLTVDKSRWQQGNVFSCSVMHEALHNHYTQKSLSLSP
light: B1 light with A25R, S26R, Q37R
notes: copies: 2 + 2
B32: Ab1H/Ab1L028 (antibody, human IgG1, kappa)
heavy: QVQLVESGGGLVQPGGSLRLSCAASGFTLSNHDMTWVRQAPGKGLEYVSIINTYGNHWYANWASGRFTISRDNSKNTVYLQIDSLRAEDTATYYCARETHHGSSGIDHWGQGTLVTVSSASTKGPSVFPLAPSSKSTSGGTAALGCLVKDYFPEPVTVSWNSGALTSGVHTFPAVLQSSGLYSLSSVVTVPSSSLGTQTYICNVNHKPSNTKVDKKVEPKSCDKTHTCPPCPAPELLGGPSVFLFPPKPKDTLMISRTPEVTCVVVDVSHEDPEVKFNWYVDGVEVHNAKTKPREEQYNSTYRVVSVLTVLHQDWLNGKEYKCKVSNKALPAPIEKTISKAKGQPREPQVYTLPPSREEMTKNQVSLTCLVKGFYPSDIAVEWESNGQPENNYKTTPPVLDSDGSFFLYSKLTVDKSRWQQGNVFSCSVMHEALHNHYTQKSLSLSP
light: B1 light with A25R, S26R, S52R, S56R
notes: copies: 2 + 2
B33: Ab1H/Ab1L020 (antibody, human IgG1, kappa)
heavy: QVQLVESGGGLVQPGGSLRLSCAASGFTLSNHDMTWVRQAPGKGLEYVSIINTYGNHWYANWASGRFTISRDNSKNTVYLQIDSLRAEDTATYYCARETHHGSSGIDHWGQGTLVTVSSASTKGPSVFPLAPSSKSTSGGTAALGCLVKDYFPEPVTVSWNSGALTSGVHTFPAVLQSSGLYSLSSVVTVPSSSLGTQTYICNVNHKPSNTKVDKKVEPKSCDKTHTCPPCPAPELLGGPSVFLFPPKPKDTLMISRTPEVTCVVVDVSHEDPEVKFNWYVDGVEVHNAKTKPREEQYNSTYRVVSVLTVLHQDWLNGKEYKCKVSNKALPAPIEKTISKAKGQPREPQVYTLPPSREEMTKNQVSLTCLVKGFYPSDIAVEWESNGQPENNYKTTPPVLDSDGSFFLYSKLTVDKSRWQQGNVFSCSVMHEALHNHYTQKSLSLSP
light: B1 light with Q24R, E27R, S52K, S56K
notes: copies: 2 + 2
B34: Ab1H/Ab1L033 (antibody, human IgG1, kappa)
heavy: not shown
light: B1 light with Q24R, E27R, G41R, Q42K, S65R, T69R
notes: copies: 2 + 2
B35: Ab1H/Ab1L061 (antibody, human IgG1, kappa)
heavy: not shown
light: B1 light with Q42K, S76R
notes: copies: 2 + 2
B36: Ab1H/Ab1L037 (antibody, human IgG1, kappa)
heavy: not shown
light: B1 light with Q24R, E27R, G41R, Q42K, T74K, S77R
notes: copies: 2 + 2
B37: Ab1H/Ab1L021 (antibody, human IgG1, kappa)
heavy: not shown
light: B1 light with Q24R, E27R, S65R, T69R
notes: '169R' read as T69R; copies: 2 + 2
B38: Ab1H/Ab1L036 (antibody, human IgG1, kappa)
heavy: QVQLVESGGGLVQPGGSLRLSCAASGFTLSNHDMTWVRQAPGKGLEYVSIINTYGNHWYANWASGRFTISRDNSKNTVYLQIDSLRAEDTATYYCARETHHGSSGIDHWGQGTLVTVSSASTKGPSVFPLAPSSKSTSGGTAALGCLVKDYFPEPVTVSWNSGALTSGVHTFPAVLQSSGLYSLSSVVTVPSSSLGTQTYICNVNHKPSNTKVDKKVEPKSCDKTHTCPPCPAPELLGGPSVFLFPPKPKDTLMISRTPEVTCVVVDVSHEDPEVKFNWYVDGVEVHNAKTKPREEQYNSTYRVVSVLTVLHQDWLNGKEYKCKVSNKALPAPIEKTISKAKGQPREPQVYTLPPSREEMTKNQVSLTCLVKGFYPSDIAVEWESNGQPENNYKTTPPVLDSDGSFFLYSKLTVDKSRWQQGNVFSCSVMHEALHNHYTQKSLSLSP
light: B1 light with Q24R, E27R, S65R, T69R, S76R, Q79K
notes: copies: 2 + 2
B39: Ab1H/Ab1L023 (antibody, human IgG1, kappa)
heavy: not shown
light: B1 light with Q24R, E27R, S76R, Q79K
notes: copies: 2 + 2
B40: Ab1H/Ab1L035 (antibody, human IgG1, kappa)
heavy: not shown
light: B1 light with Q24R, E27R, S65R, T69R, T74K, S77R
notes: copies: 2 + 2
B41: Ab1H/Ab1L030 (antibody, human IgG1, kappa)
heavy: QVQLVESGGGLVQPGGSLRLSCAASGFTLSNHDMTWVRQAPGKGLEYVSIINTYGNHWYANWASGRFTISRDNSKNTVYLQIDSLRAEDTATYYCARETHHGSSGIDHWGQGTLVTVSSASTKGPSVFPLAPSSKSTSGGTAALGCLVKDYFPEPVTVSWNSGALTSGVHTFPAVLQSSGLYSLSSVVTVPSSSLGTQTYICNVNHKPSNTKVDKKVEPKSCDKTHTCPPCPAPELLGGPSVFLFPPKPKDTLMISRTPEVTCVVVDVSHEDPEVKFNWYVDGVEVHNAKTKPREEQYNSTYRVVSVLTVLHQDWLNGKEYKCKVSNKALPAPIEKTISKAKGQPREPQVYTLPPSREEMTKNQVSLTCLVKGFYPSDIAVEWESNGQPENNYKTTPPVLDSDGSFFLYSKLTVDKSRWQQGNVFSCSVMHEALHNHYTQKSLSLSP
light: B1 light with A25R, S26R, S65R, T69R
notes: copies: 2 + 2
B42: Ab1H/Ab1L022 (antibody, human IgG1, kappa)
heavy: not shown
light: B1 light with Q24R, E27R, T74K, S77R
notes: copies: 2 + 2
B43: Ab1H/Ab1L039 (antibody, human IgG1, kappa)
heavy: not shown
light: B1 light with Q24R, E27R, T74K, S76R, S77R, Q79K
notes: copies: 2 + 2
B44: Ab1H/Ab1L041 (antibody, human IgG1, kappa)
heavy: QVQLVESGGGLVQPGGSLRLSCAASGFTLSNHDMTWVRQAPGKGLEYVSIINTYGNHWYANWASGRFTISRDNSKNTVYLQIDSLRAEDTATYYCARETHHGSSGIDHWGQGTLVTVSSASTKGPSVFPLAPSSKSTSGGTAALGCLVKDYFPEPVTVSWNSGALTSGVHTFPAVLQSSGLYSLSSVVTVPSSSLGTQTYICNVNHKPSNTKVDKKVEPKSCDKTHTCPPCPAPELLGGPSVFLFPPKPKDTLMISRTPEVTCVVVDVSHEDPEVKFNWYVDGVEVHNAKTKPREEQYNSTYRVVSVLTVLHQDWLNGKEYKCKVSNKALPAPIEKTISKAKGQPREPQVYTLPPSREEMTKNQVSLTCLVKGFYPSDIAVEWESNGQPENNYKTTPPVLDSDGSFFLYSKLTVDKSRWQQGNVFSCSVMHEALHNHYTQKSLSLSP
light: B1 light with Q24R, E27R, S52R, S56R, S76R, Q79K
notes: copies: 2 + 2
B45: Ab1H/Ab1L017 (antibody, human IgG1, kappa)
heavy: not shown
light: B1 light with Q24R, E27R, G41R, Q42K
notes: copies: 2 + 2
B46: Ab1H/Ab1L034 (antibody, human IgG1, kappa)
heavy: not shown
light: B1 light with Q24R, E27R, S52R, S56R, S65R, T69R
notes: copies: 2 + 2
B47: Ab1H/Ab1L062 (antibody, human IgG1, kappa)
heavy: not shown
light: B1 light with S65R, Q79K
notes: copies: 2 + 2

Target: T1, soluble human FcγRIIb (human, UniProt P31994 43-217, limits assumed)
T1 construct: soluble His-tagged form; also called hFcγRIIb
T1 sequence (looked up): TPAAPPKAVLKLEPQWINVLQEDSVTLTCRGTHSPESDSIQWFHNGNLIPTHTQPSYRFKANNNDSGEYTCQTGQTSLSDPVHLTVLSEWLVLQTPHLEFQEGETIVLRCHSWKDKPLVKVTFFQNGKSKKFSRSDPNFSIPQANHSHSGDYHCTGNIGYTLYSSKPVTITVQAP
Experiment: SPR, Ab-IgE complex over captured hFcγRIIb, pH 7.4, 25C
Method: (§1) Regarding the produced Fc region variant-containing antibodies, binding assays between soluble human FcγRIIb and antigen-antibody complexes were performed using BIACORE T200 (GE Healthcare). Soluble human FcγRIIb (NCBI accession NM_004001.3) was produced in the form of a His-tagged molecule by a method known in the art. An appropriate amount of an anti-His antibody was fixed onto Sensor chip CM5 (GE Healthcare) by the amine coupling method using a His capture kit (GE Healthcare) to capture human FcγRIIb. Next, an antibody-antigen complex and a running buffer (as a reference solution) were injected, and interaction was allowed to take place with the human FcγRIIb captured onto the sensor chip. 20 mM N-(2-Acetamido)-2-aminoethanesulfonic acid, 150 mM NaCl, 1.2 mM CaCl₂, and 0.05% (w/v) Tween 20 at pH 7.4 was used as the running buffer, and the respective buffer was also used to dilute the soluble human FcγRIIb. To regenerate the sensor chip, 10 mM glycine-HCl at pH 1.5 was used. All measurements were carried out at 25° C. Analyses were performed based on binding (RU) calculated from sensorgrams obtained by the measurements, and relative values when the binding amount of Ab1H/Ab1L (original Ab1) was defined as 1.00 are shown. To calculate the parameters, the BIACORE T100 Evaluation Software (GE Healthcare) was used.

Binder | BIACORE fold (relative binding, original Ab1=1.00) [fold]
B1 | 1.19
B2 | 1.03
B3 | 1.18
B4 | 1.13
B5 | 1.23
B6 | 1.19
B7 | 1.22
B8 | 1.13

Target: T1, soluble human FcγRIIb
Experiment: as above
Remark: another data set of the same source
Method: as §1

Binder | BIACORE fold (relative binding, original Ab1=1.00) [fold]
B9 | 0.92
B10 | 1.27
B11 | 1.02
B12 | 1.21
B13 | -0.01
B14 | 1.57
B15 | 0.91
B16 | 1.33
B17 | 1.28
B18 | 1.21
B19 | 1.05
B20 | 0.06
B21 | 1.52
B22 | 1.04
B23 | 1.37
B24 | 0.76
B25 | 0.96

Target: T1, soluble human FcγRIIb
Experiment: as above
Remark: another data set of the same source
Method: as §1

Binder | BIACORE fold (relative binding, original Ab1=1.00) [fold]
B26 | 1.47
B27 | 1.23
B28 | 1.23
B29 | 1.17
B30 | 0.07
B31 | 1.39
B32 | 1.46
B33 | 1.22
B34 | 1.26
B35 | 1.02
B36 | 1.38
B37 | 1.36
B38 | 1.48
B39 | 1.39
B40 | 1.49
B41 | 1.16
B42 | 1.45
B43 | 0.99
B44 | 1.35
B45 | 1.27
B46 | 1.71
B47 | 0.98
